assay: soluble on expression in E. coli; label from the status in PepcDB or PDB records

Soluble on expression in E. coli, not soluble:
MGSDKIHHHHHHMGIGIIIASHGKFAEGIHQSGSMIFGEQEKVQVVTFMPNEGPDDLYGHFNNAIQQFDADDEILVLADLWSGSPFNQASRVAGENPDRKMAIITGLNLPMLIQAYTERLMDAGAGVEQVAANIIKESKDGIKALPEDLNPVEETAATEKVVNALQGAIPAGTVIGDGKLKINLARVDTRLLHGQVATAWTPASKADRIIVASDEVAQDDLRKQLIKQAAPGGVKANVVPISKLIEASKDPRFGNTHALILFQTPQDALRAVEGGVEINELNVGSMAHSTGKTMVNNVLSMDKEDVATFEKLRDLGVTFDVRKVPNDSKKNLFELIQKTNIK, MGSDKIHHHHHHMGILQTMFIGFDYGTANCSVAVMRENTPQLLTLENGSTLLPSMLCAPTREAVSEWLYRHHDVPTHSDENQALLRRAIAANRDEDIEVLRNSVQFGLASLQQYVEDPQEVYFVKSPKSFLGASGLKPQQVALFEDLVCAMMLHIKLQAESQLPEQIDQAVIGRPINFQGLGGDEANAQAQGILERAAHRAGFRDVVFQFEPVAAGLDFEATLSEEKRVLVVDIGGGTTDCSLLLMGPQWRERADRQQSLLGHSGCRIGGNDLDIALAFKCLMPLLGMGGETEKGTALPILPWWNAVAINDVPAQSDFYSTANGRLLNDLLRSARDADKVALLLKVWRQRLSYRLVRSAEESKIALSSAASVETALPFIQDDLATAIAQQGLEAALDQPLTRIMEQVRLALDSSQTTPDVIYLTGGSARSPLIKKALAAQLPGIPLAGGDDFGSVTAGLARWAQVVFR, MGSDKIHHHHHHMGKTTRKVQITGGSTFIVSLPPEWVKRNGITKGSEISISDDGNDLVISSSNPDLPEVSKKIIIPPNYTGKPLQRLLTSSYISGFDTLSIVSKEKMGSELRDDIKRFSKVVMGIEIIEETSKSVVLQNVLNVKTFPLSKAIRRMSLNVGTMIEDTIKAIEDYDEELFQNVIERDDEVDRYQWYIYREVKNHCQYEDSNVFMLVLSRILERMADHTVNICIAMKDRKAVNGRMEMIDNLKFSLDVYNHAVESFYSKNFKVLDGIINQKSEINERKFKLLKILSYDVVLSSIAEEISRIGLYGTDIAELAMDLILSDKLEFSVQ, MGSDKIHHHHHHMGSSPARMSSGAPAPRVEVECLKAYSAPLEGRRGLLRLDFNENTIGPSPRVLEALRAIPADQIAVYPEYDGLREAVVANLSNRDQGRPGLTQPLSPSQIGLFNGVDAAIHAIFHAYGDRGDRLLTTSPTFGYYTPCAQMQGMKILAIPYEGSDFRFPLQVIRTLLQQKRPRLLLLCNPNNPTGTRLAPEQILELAVAAPETLVVVDELYEAFTGDSVLPQADFSVTPNLLVLRSLAKTAGLAGLRMGFAIGSADVIDRVSRVTGPYDINSFAVTAAFAALDDQAYVDAYVADVLKARDWISARLDASGVPYHLDGGNYLLIWPQQQPTEVEAALRKRGILVRLMTGKPLIDGSLRVSIGTIEQMQQFWQAFATVESLAA, MGSDKIHHHHHHMGTVNRAVFLDRDGVINKDHGYVHQVDDFEYIEGVFEACLALKQQGYKLVVVTNQSGIARGMYTEDQFHSLTEWMDWNFADKGVDLDGIYYCPHHNEKGIGEYKVDCDCRKPKPGMLIDAAKFLKIDLSQSVMVGDKTDDMLAAKAAGVPTRILVRTGKAIADESDASVVLDSIADVPAFLKNHKAS, MGSDKIHHHHHHMHACGDAVLFLPPNPFLDLRPVPHTSWARLPPMIRLAVLSDLHANLEATLAVHADVQRRGIQEIWVLGDLVGKGPRPREVVEWTQAHASRVIQGNWDARVAGATNRPQDLWPRSKLTPAQLAYLAGLPYGIEEQFSGAWWRFVHASSKGLFHRLYPHSSLAEQLEAYMPNPQFGLKVHADALVYADVHETLMLDVEGRPLINTGSVGNPLDSTLPSYLILEFDPHSPAHSATFVRLTYNRDAEIAAAEASGMPFTREYVAELLTGAYQKRRARTGE, MGSDKIHHHHHHMHFDAETVTHRGGLSKLRSLTKVNPRLAPNLAKTMLGGPRDHAVVEAFNAHAADKGFEFTSTWASNNIPFVTPLLRDFAAKRPAGEAIRYMEIGAYEGRNLAFMDWLLPDRLAVTVIDPWFDEALNPEEKYHAVEPRFRRNMDKCGFKSLSTHKGFSTYVLPQMLERGEQFDLIYVDGSHTALAVLIDLCFCASLLSVGGMMVLDDYWHDISEIGGPGVKQAVDQFHAAFGRYFEIAAVYRQVALVKTSEIPR, MGSDKIHHHHHHMHQGAHLDLDDGYQGDISNIGFIIGAKGVAVIDTGGSRQVGEALLSAIREITDLPVLYVINTHIHPDHIFGNAAFKQEHPVFIGHAKLPNAMALRGEAYLRQGQKLLGIQFSESEIIPPTQLVASFQELDIGGRKLLLTAYPNAHTNTDLTVLDETTGTLWTGDLLFIERAPSIDGDIKGWLSAIEDLQKLTGIQLAVPGHGPATQDLQGALSNQARYLNLLLHDVRKAIKQGHSMQQAMESAAASESGHWQLFHEVNRRNVNLIYPVLEWE, MGSDKIHHHHHHMHSDEEIFKETTPKALLQLLKKDYYFHDYCYQEIIPRGKEIKMNNSKGFQIYLVESGYFSYCLQNEYGDSGIISFVGGEIAINLIPIIKEEPEESVLRSLTEVHCWVLDPDFVERVLDESGQKAKYLLSNLLYTRKVYFKASKRNFMKKELRIRACLKELGLYMGRVTKEKEFILPDEINNSILAQYANTTREYTNIIVLKLRKEGILDDSHKPWVIKKIDIL, MGSDKIHHHHHHMHSMRLSQIQDFIAVAEGGSIRAAARTRDVSAPALTKSIRQLEDELHVPLLTRTTRGVVLSHYGEAFLRRARLIATEARRATEEMTQMLGARTGTVRIGVTGGPAHLLLPAALNRFRRQHPEVQVYIDSGRSAVHLQDLRAGLIDVAVSPIPDEGIDHDFICEPLYNNDSVVVAHQDHPLRHARTLRELVGSEWILTTCRMHGPGAAIMDAFRAQDLPLPRVAVRCDTFNLIQALLQNRRLLCMVARQLMQDRVGASTGLAVLPIEDPLPSHTVCLIYRADSPMPPVVASFAAQLRREAHYLINMPDSPLKRPGAPPEPRDDKPVETADIAV, MGSDKIHHHHHHMIDFDSLTHDQQLGILQETAEAATANYDLPADVSVDMINLSENATYKIAARDGRRWALRIHRDGYHSRTAIQSELAWLTDLRQTGIVLTPVPVAGKDGEQIQRVGHARLAQPRHVVLSQWETGSEPGIGEALGEPFELLGEVTARMHIHARQWKRPSWFSRHVWDFETSLGEERPHWGRWRDGIGVDAAKARLFGRTAELIGRRLAAFGKGHDRFGLIHCDLRLANLLIDGKTVKVIDFDDCGFGWYMYDAATPISFYEHEPQAADLIRSWTTGYRRVLDLPKADEDEIPTFVMLRRLLLVAWIGSHAETDLAKSMGLPYTEGTVGLCEAYLSKF, MGSDKIHHHHHHMIDIHCHILPEIDDGPSSLEESLVMAREAVKEGITKIIATPHHLHPSYNNKAAVVKEKVRKLNEAIQKENIPLEILPGQEVRISGDVMDGLVSGDILTLADQGKYLFVEFSSNHVSRYADKLFFQLLSQDIIPIIVHPERNHEFLKNPGLLYDLVNGGALTQITTSSLTGHLGKKIKKFTEQIIEADLTHFLASDAHNVTERTFRIREAFALVEKNYGSSKAYEFQENAELLVENQHVMGPPPQPIVKKKLLGIF, MGSDKIHHHHHHMIDPAGRTTAWEYDAYGSLLVQTLPDGSAVRTEFDLDHRPVCMTLIGGRQWGYEWNTFGNLLAQSDPSGAISRYTYDEYGQLVEHTGPRGASTRFDYHPDGNLAAQIDALGHRTQYRYDARGYLGEAIDALGQQSQYEYDRNGHLTRAIEPGGREIHCAYDADGNLSRHRDPMGHVTQMEYSALGQVSRRLAPDGTTVEYRYDTEEQLIGVVNERSELYALERDALGRIVVETDYWGQARRYRYGAAGELLCSTDPLGQTVEYRYDWLGRIVQKRVPHPEQDEALQIDSFAYDRHGDLVLAENPSCRVEFDYDAAGRMIEERQGDDFTIASDYDEAVTCPLR

— the DeepSol protein solubility set
